According to patent publication US20230321287A1, “RADIOLABELLED GRPR-ANTAGONIST FOR USE AS THERAGNOSTIC” (NOVARTIS AG, priority 2019, published 2023):

Experiments:
clinical = conditions: for tissue uptake at 0.25 h / tissue uptake at 1 h / tissue uptake at 2 h / tissue uptake at 4 h: human, Relative radiotracer uptake
From the text: The primary objective was to characterize preliminary targeting properties of [68Ga] NeoB in patients with malignancies known to overexpress GRPR. The primary efficacy endpoints were: • Number and location of tumor lesions detected by [68Ga]-NeoBOMB1 overall and for each tumor type • Calculation of the ratio tumor/background standard uptake value (SUV) and %injected dose per gram of tissue (ID/g) and calculation of absorbed dose (mGy/MBq) in tumor overall and for each tumor type.
Accordingly, highest relative tracer uptake following administration of a bombesin antagonist is expected in pancreas, kidney, and liver (Roivainen et al, 2013).

GRPR [1] = molecular target: T1, GRPR (Homo sapiens, UniProt P30550); conditions: GRPR expressed in breast, prostate and GIST; non-clinical models; cited from earlier work
GRPR [2] = molecular target: T1, GRPR; conditions: non-clinical models; cited from earlier work
[3] = 6 patients with GIST; cited from earlier work

T1 sequence (P30550 whole entry, species assumed): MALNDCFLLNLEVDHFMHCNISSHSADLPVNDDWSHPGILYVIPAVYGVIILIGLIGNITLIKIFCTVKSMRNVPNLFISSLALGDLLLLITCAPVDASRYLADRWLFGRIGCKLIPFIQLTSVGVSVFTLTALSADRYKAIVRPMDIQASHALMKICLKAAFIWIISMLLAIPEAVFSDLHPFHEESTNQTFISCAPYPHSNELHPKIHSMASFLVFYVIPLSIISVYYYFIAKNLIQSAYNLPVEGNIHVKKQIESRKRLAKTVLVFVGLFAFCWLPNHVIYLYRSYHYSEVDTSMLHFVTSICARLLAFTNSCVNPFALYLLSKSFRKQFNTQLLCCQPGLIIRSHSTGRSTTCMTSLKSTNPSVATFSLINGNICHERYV

CC(C)CC(CC(C)C)NC(=O)[C@H](Cc1cnc[nH]1)NC(=O)CNC(=O)[C@@H](NC(=O)[C@H](C)NC(=O)[C@H](Cc1c[nH]c2ccccc12)NC(=O)[C@H](CCC(N)=O)NC(=O)[C@@H](Cc1ccccc1)NC(=O)COCC(=O)Nc1ccc(CNC(=O)CN2CCN(CC(=O)O)CCN(CC(=O)O)CCN(CC(=O)O)CC2)cc1)C(C)C [[68Ga]-NeoB, metal not drawn]
tissue uptake at 0.25 h (clinical; tumor lesion T4-liverR1, total radioactivity, patient FR01-009, tumor lesion T4-liverR1, 15 min/17.8 min actual): 0.013 %ID/g
tissue uptake at 1 h (clinical; tumor lesion T4-liverR1, total radioactivity, patient FR01-009, tumor lesion T4-liverR1, 60 min/60.7 min actual): 0.014 %ID/g
tissue uptake at 2 h (clinical; tumor lesion T4-liverR1, total radioactivity, patient FR01-009, tumor lesion T4-liverR1, 120 min/123.9 min actual): 0.0153 %ID/g
tissue uptake at 4 h (clinical; tumor lesion T4-liverR1, total radioactivity, patient FR01-009, tumor lesion T4-liverR1, 240 min/207.9 min actual): 0.0116 %ID/g
tissue uptake at 0.25 h (clinical; tumor lesion T5-liverR2, total radioactivity, patient FR01-009, tumor lesion T5-liverR2, 15 min/17.8 min actual): 0.015 %ID/g
tissue uptake at 1 h (clinical; tumor lesion T5-liverR2, total radioactivity, patient FR01-009, tumor lesion T5-liverR2, 60 min/60.7 min actual): 0.0193 %ID/g
tissue uptake at 2 h (clinical; tumor lesion T5-liverR2, total radioactivity, patient FR01-009, tumor lesion T5-liverR2, 120 min/123.9 min actual): 0.022 %ID/g
tissue uptake at 4 h (clinical; tumor lesion T5-liverR2, total radioactivity, patient FR01-009, tumor lesion T5-liverR2, 240 min/207.9 min actual): 0.0212 %ID/g
tissue uptake at 0.25 h (clinical; tumor lesion T6-sacrumL, total radioactivity, patient FR01-009, 15 min/17.8 min actual): 0.00315 %ID/g
tissue uptake at 1 h (clinical; tumor lesion T6-sacrumL, total radioactivity, patient FR01-009, 60 min/60.7 min actual): 0.00289 %ID/g
tissue uptake at 2 h (clinical; tumor lesion T6-sacrumL, total radioactivity, patient FR01-009, 120 min/123.9 min actual): 0.00254 %ID/g
tissue uptake at 4 h (clinical; tumor lesion T6-sacrumL, total radioactivity, patient FR01-009, 240 min/207.9 min actual): 0.00188 %ID/g
tissue uptake at 0.25 h (clinical; tumor lesion T7-liverP, total radioactivity, patient FR01-009, 15 min/17.8 min actual): 0.0122 %ID/g
tissue uptake at 1 h (clinical; tumor lesion T7-liverP, total radioactivity, patient FR01-009, 60 min/60.7 min actual): 0.0118 %ID/g
tissue uptake at 2 h (clinical; tumor lesion T7-liverP, total radioactivity, patient FR01-009, 120 min/123.9 min actual): 0.0124 %ID/g
tissue uptake at 4 h (clinical; tumor lesion T7-liverP, total radioactivity, patient FR01-009, 240 min/207.9 min actual): 0.0108 %ID/g
tissue uptake at 0.25 h (clinical; tumor lesion T8-liverR, total radioactivity, patient FR01-009, 15 min/17.8 min actual): 0.0108 %ID/g
tissue uptake at 1 h (clinical; tumor lesion T8-liverR, total radioactivity, patient FR01-009, 60 min/60.7 min actual): 0.00961 %ID/g
tissue uptake at 2 h (clinical; tumor lesion T8-liverR, total radioactivity, patient FR01-009, 120 min/123.9 min actual): 0.0109 %ID/g
tissue uptake at 0.25 h (clinical; urinary bladder wall, total radioactivity, patient FR01-008, 15 min/38.6 min actual): 0.0313 %ID/g
tissue uptake at 1 h (clinical; urinary bladder wall, total radioactivity, patient FR01-008, 60 min/62.6 min actual): 0.0426 %ID/g
tissue uptake at 2 h (clinical; urinary bladder wall, total radioactivity, patient FR01-008, 120 min/123.2 min actual): 0.0214 %ID/g
tissue uptake at 4 h (clinical; urinary bladder wall, total radioactivity, patient FR01-008, 240 min/221.1 min actual): 0.0179 %ID/g
tissue uptake at 0.25 h (clinical; urinary bladder wall, total radioactivity, patient FR01-009, 15 min/17.8 min actual): 0.0268 %ID/g
tissue uptake at 1 h (clinical; urinary bladder wall, total radioactivity, patient FR01-009, 60 min/60.7 min actual): 0.0648 %ID/g
tissue uptake at 2 h (clinical; urinary bladder wall, total radioactivity, patient FR01-009, 120 min/123.9 min actual): 0.0405 %ID/g
tissue uptake at 4 h (clinical; urinary bladder wall, total radioactivity, patient FR01-009, 240 min/207.9 min actual): 0.11 %ID/g
Relative radiotracer uptake (clinical; patient FR01-008, Alveolar-interstitial (Lungs), 15 min/38.6 min actual): 2.1842E-03 %ID/g
Relative radiotracer uptake (clinical; patient FR01-008, Alveolar-interstitial (Lungs), 60 min/62.6 min actual): 9.4759E-04 %ID/g
Relative radiotracer uptake (clinical; patient FR01-008, Alveolar-interstitial (Lungs), 120 min/123.2 min actual): 6.7856E-04 %ID/g
Relative radiotracer uptake (clinical; patient FR01-008, Alveolar-interstitial (Lungs), 240 min/221.1 min actual): 6.2082E-04 %ID/g
Relative radiotracer uptake (clinical; patient FR01-008, Heart wall, 15 min/38.6 min actual): 6.0002E-03 %ID/g
Relative radiotracer uptake (clinical; patient FR01-008, Heart wall, 60 min/62.6 min actual): 2.4054E-03 %ID/g
Relative radiotracer uptake (clinical; patient FR01-008, Heart wall, 120 min/123.2 min actual): 1.6323E-03 %ID/g
Relative radiotracer uptake (clinical; patient FR01-008, Heart wall, 240 min/221.1 min actual): 1.3018E-03 %ID/g
Relative radiotracer uptake (clinical; patient FR01-008, Kidneys, 15 min/38.6 min actual): 6.8821E-03 %ID/g
Relative radiotracer uptake (clinical; patient FR01-008, Kidneys, 60 min/62.6 min actual): 5.7654E-03 %ID/g
Relative radiotracer uptake (clinical; patient FR01-008, Kidneys, 120 min/123.2 min actual): 2.3856E-03 %ID/g
Relative radiotracer uptake (clinical; patient FR01-008, Kidneys, 240 min/221.1 min actual): 1.4872E-03 %ID/g
Relative radiotracer uptake (clinical; patient FR01-008, Spleen, 240 min/221.1 min actual): 1.2014E-03 %ID/g
Relative radiotracer uptake (clinical; patient FR01-008, tumor lesion T1-Chest, 15 min/38.6 min actual): 3.4664E-03 %ID/g
Relative radiotracer uptake (clinical; patient FR01-008, tumor lesion T1-Chest, 60 min/62.6 min actual): 2.1832E-03 %ID/g
Relative radiotracer uptake (clinical; patient FR01-008, tumor lesion T1-Chest, 120 min/123.2 min actual): 1.4935E-03 %ID/g
Relative radiotracer uptake (clinical; patient FR01-008, tumor lesion T1-Chest, 240 min/221.1 min actual): 1.2884E-03 %ID/g
Relative radiotracer uptake (clinical; patient FR01-008, tumor lesion T2-Left rib, 15 min/38.6 min actual): 3.8441E-03 %ID/g
Relative radiotracer uptake (clinical; patient FR01-008, tumor lesion T2-Left rib, 60 min/62.6 min actual): 2.5064E-03 %ID/g
Relative radiotracer uptake (clinical; patient FR01-008, tumor lesion T2-Left rib, 120 min/123.2 min actual): 1.7251E-03 %ID/g
Relative radiotracer uptake (clinical; patient FR01-008, tumor lesion T2-Left rib, 240 min/221.1 min actual): 1.6681E-03 %ID/g
Relative radiotracer uptake (clinical; patient FR01-008, tumor lesion T3-Spine, 15 min/38.6 min actual): 4.6895E-03 %ID/g
Relative radiotracer uptake (clinical; patient FR01-008, tumor lesion T3-Spine, 60 min/62.6 min actual): 2.2489E-03 %ID/g
Relative radiotracer uptake (clinical; patient FR01-008, tumor lesion T3-Spine, 120 min/123.2 min actual): 1.8497E-03 %ID/g
Relative radiotracer uptake (clinical; patient FR01-008, tumor lesion T3-Spine, 240 min/221.1 min actual): 1.9539E-03 %ID/g
affinity to the GRPR (GRPR [1]): high affinity
internalization upon binding to the specific receptor (GRPR [2]): low degree of internalization
effective dose, mean [3]: 0.029 ± 0.06 mSv/MBq
